Laboratory results from paper PMC2173821 (The Journal of Cell Biology, 2002).

Biological target: the molecule itself
Test: SEC

Protein	stoichiometry N
His-tagged wild-type human BAF, recombinant (natural protein, UniProt O75531 1-89, looked up) MTTSQKHRDFVAEPMGEKPVGSLAGIGEVLGKKLEERGFDKAYVVLGQFLVLKKDEDLFREWLKDTCGANAKQSRDCFGCLREWCDAFL	2
His-tagged human BAF mutant 14A, recombinant (natural protein, UniProt O75531 1-89, looked up) MTTSQKHRDFVAEAMGEKPVGSLAGIGEVLGKKLEERGFDKAYVVLGQFLVLKKDEDLFREWLKDTCGANAKQSRDCFGCLREWCDAFL	2
His-tagged human BAF mutant 41E, recombinant (natural protein, UniProt O75531 1-89, looked up) MTTSQKHRDFVAEPMGEKPVGSLAGIGEVLGKKLEERGFDEAYVVLGQFLVLKKDEDLFREWLKDTCGANAKQSRDCFGCLREWCDAFL	2
His-tagged human BAF mutant 53E, recombinant (natural protein, UniProt O75531 1-89, looked up) MTTSQKHRDFVAEPMGEKPVGSLAGIGEVLGKKLEERGFDKAYVVLGQFLVLEKDEDLFREWLKDTCGANAKQSRDCFGCLREWCDAFL	2
His-tagged human BAF mutant 47E, recombinant (natural protein, UniProt O75531 1-89, looked up) MTTSQKHRDFVAEPMGEKPVGSLAGIGEVLGKKLEERGFDKAYVVLEQFLVLKKDEDLFREWLKDTCGANAKQSRDCFGCLREWCDAFL	2
